Laboratory results reported in US11733246B2, “Compositions, imaging, and therapeutic methods targeting folate receptor 1 (FOLR1)” (Indi Molecular, Inc., priority 2020, dated 2023).
Numbered stars: 1 amine (or outer) side, 2 acyl side, 3 side chain; on linkers, the order of the positions; unused ones are H or OH. Bridge positions count the residues as written; N and C are the ends. Square brackets hold non-standard residues; d marks the D form. Triazole bridges read from a SMILES are 1,4-linked. Side chains are listed from the residue outwards. Peptide text beside a SMILES is read from it. * marks the point of attachment. ξ: configuration not given here. DOTA = O=C(O)CN1CCN(CC(=O)O)CCN(CC(=O)*)CCN(CC(=O)O)CC1; Pteroyl = Nc1nc2ncc(CNc3ccc(C(=O)*)cc3)nc2c(=O)[nH]1; Biotin = O=C1N[C@H]2[C@H](CS[C@H]2CCCCC(=O)*)N1; Butanoyl(4-(4-I-phenyl)) = O=C(CCCc1ccc(I)cc1)*; Butanoyl(4-(4-MePh)) = Cc1ccc(CCCC(=O)*)cc1; dLys(N3) = [N-]=[N+]=NCCCC[C@@H](N)C(=O)O; Lys(N3) = [N-]=[N+]=NCCCC[C@H](N)C(=O)O; γGlu = O=C(O)[C@H](CCC(=O)[*:2])N[*:1]; AEEEA = NCCOCCOCCOCC(=O)O; Pra = C#CC[C@H](N)C(=O)O; ξPra = C#CCC(N)C(=O)O; X2 = NOCC(=O)*

Experiments:
OVCAR3 FOLR1+ cells = test: Flow cytometry binding to FOLR1 (+) cells; assay type: cell-based, human; conditions: OVCAR3 vs PC-3, flow cytometry
Procedure: Both the kyeet (SEQ ID NO:9) and hshta (SEQ ID NO:6)-derived biligands were tested by flow cytometry for binding to FOLR1 (+) and FOLR1 (−) cell lines (FIGS. 6 and 7). The human ovarian adenocarcinoma-derived cell line OVCAR3 has robust FOLR1 expression and was selected as the FOLR1 (+) cell line. The human prostate adenocarcinoma-derived cell line PC-3 was selected as a FOLR1 (−) cell line.
Competition at the cellular level was also probed.
Increasing the serum-bound fraction of the peptide may decrease first pass removal of the heterobiligand, and drive compound retention of tumor over kidney. Constructs bearing the known albumin binder 4-methylphenyl butyric acid (4-MPBA) were synthesized. These compounds were evaluated in vitro to verify binding fidelity to FOLR1. The modified heterobiligands were incubated at 400 nM with OVCAR3 and PC-3 cells for 20 minutes at 37° C. in complete media containing 20% FBS. They both bind to OVCAR3 FOLR1+ cells with similar binding affinities as the original heterobiligand studied (FIG. 14). […] Similar activity of these heterobiligands is anticipated in vivo.

[1] = Plasma protein binding (equilibrium dialysis), human; assay type: in vitro ADME
Procedure: (§1) HTD 96 a/b regenerated cellulose membrane strips with mass cutoff of 12-14 kDa were soaked in ultra-pure water at room temperature for 1 hour. Each swelled membrane was then soaked in 20:80 ethanol:water for 20 minutes.
(§2) Just prior to the experiment, the membranes were re-soaked in ultra-pure water. Plasma was prepared by thawing under cold water. The plasma was centrifuged to remove any clots and pH was adjusted to 7.0-8.0. Test articles and control compounds were diluted to 2 μM. The dialysis device was loaded by transferring 150 μL of the test article (in triplicate) to the donor side. The dialysis device was placed in a humidified incubator at 37° C. with 5% CO2 in a shaking platform that rotated slowly for 4 hours. After incubation, 50 μL of the supernatant was taken from both sides and analyzed by LC-MS/MS.
(§3) To optimize the albumin binding potential of the heterobiligand, a plasma protein binding (PPB) experiment was performed. This experiment measured the amount of test article bound and free after equilibrating with plasma. Compound #6305 (folate-hshta-Lys(MPBA)-Gly-Phe-Lys(DOTA) (SEQ ID NO:6)), which contains the MPBA albumin binder, was 96.26% bound to mouse plasma and 98.34% bound to human plasma. […] In mouse and human plasmas 99.6% and 99.5% was bound, respectively.

[2] = Plasma protein binding (equilibrium dialysis), mouse; assay type: in vitro ADME, CD-1 mouse
Procedure: as §1, §2, §3

human recombinant NEP = human recombinant NEP (Homo sapiens, UniProt P08473); assay type: biochemical
Procedure: In order to test the susceptibility of GFK and MVK linkers to NEP-mediated cleavage, the peptide (Folate-hshta-Lys(MPBA)-Gly-Phe-Lys(DOTA) (SEQ ID NO:6)) was incubated with human recombinant NEP and analyzed the solution for the presence of cleaved adducts. MALDI was utilized to monitor the cleavage of a PCC heterobiligand that contains a NEP protease recognizable sequence (G-F-K). The PCC concentration was constant and the NEP concentration was titrated down from 10 nM to 1 nM, 0.1 nM, 0.01 nM, and no NEP. The NEP-mediated cleaved adduct was identified by mass. 10 μM PCC containing the GFK linker was combined with varying amounts of NEP. […] Below 0.1 nM no cleavage was observed. • Folate-hshta-Lys(MPBA)-Gly-Phe-Lys(DOTA) (SEQ ID NO:6) • Molecular weight 2231.42
The NEP-mediated cleavage was also monitored by HPLC. In agreement with the MALDI spectra, the HPLC chromatograms show depletion of the parent brush-border heterobiligand (retention time 17.1 minutes), dose-dependent on the amount of NEP spiked into the sample (10 nM, 1 nM, 0.1 nM, 0.01 nM, and no NEP). An appearance of a new peak (retention time 16.5 minutes) in concert with the depletion of the starting material is presumed to be the cleaved folate-containing peptide.
In order to test the specificity of NEP, a non-cleavable linker (PEG3) was also assayed.
To reduce the radioactive dose to the kidney, Indi ^177Lu-7327 was constructed to incorporate a GFK linker that is susceptible to cleavage by enzymes found predominately in the kidney's brush border. These enzymes cleave off the radionuclide-chelator complex, which is quickly eliminated by the kidney for excretion in the urine. The zinc metalloprotease neprilysin (NEP) is expressed with high abundance in the kidney. […] To confirm NEP-mediated cleavage of the GFK linker in Indi 7327, the peptide was incubated with recombinant human NEP at 37° C. for 1 h and analyzed by matrix-assisted laser desorption/ionization mass spectrometry (MALDI-MS) for the evolution of cleaved adducts (FIG. 42). […] The expected cleaved adduct (mass: 1283.16 m/z) appears in the samples containing 10, 1.0, and 0.1 nM NEP. […] Below 0.1 nM NEP, no cleavage was observed. In addition to confirming the selectivity of NEP for the GFK linker, it is also important to note that the remaining portions of the Indi 7327 were impervious to the enzyme.

human recombinant NEP, sequence (P08473 whole entry): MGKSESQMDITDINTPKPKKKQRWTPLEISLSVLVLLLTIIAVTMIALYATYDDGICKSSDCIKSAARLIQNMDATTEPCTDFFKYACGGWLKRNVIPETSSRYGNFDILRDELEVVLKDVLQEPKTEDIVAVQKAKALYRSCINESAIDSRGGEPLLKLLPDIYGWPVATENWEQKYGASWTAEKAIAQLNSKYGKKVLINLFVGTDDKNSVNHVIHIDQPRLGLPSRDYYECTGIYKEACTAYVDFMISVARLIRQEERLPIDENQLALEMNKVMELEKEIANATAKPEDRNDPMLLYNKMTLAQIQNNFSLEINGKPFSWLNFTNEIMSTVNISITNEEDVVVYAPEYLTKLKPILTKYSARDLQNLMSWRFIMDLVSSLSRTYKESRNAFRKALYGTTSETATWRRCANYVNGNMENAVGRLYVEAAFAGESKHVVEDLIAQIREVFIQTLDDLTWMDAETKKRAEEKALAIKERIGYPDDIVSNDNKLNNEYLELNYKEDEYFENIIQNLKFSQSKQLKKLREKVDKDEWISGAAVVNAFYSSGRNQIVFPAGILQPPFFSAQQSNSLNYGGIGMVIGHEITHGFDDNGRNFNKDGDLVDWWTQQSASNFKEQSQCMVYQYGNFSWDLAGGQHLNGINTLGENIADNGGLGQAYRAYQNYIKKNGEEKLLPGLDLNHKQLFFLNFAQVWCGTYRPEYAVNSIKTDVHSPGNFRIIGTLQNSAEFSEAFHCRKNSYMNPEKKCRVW

| Structure (SMILES) | selectivity for FOLR1 (+) cells over FOLR1 (−) cells (OVCAR3 FOLR1+ cells) | recovery at 4 h, 2 μM ([1]; human) [%] | fraction unbound at 4 h, 2 μM ([1]; human, plasma) | in vitro Assay Data (NEP assay) (human recombinant NEP) | recovery at 4 h, 2 μM ([2]; CD-1, mouse) [%] | fraction unbound at 4 h, 2 μM ([2]; CD-1, mouse, plasma) | also measured |
| --- | --- | --- | --- | --- | --- | --- | --- |
| C[C@H](O)[C@H]1NC(=O)[C@@H](Cc2ccc(O)cc2)NC(=O)[C@@H](CCCNC(=N)N)NC(=O)[C@@H](CCC(=O)O)NC(=O)[C@@H](CC(=O)O)NC(=O)[C@@H](NC(=O)[C@H](Cc2cn(CCOCCOCCOCCNC(=O)CC[C@H](NC(=O)c3ccc(NCc4cnc5nc(N)[nH]c(=O)c5n4)cc3)C(=O)O)nn2)NC(=O)CCOCCOCCOCCOCCOCCOCCOCCOCCOCCOCCNC(=O)CCOCCOCCOCCOCCOCCOCCOCCOCCOCCOCCNC(=O)CCCC[C@@H]2SC[C@@H]3NC(=O)N[C@@H]32)Cc2cn(nn2)CCCC[C@@H](C(N)=O)NC1=O [Folate-deryt] | excellent selectivity for FOLR1 (+) cells | – | – | – | – | – | – |
| C[C@@H](O)[C@@H]1NC(=O)[C@H](CCCCN)NC(=O)[C@@H](Cc2c[nH]c3ccccc23)NC(=O)[C@H](Cc2ccccc2)NC(=O)[C@@H](NC(=O)[C@H](N)Cc2ccccc2)CSSC[C@@H](C(=O)N[C@H](CO)[C@@H](C)O)NC1=O [Octreotide Acetate, reference compound] | – | – | – | – | – | – | recovery at 4 h, 2 μM ([1]; Hu (human plasma), recovery in plasma protein binding assay, read-out: (% Recovery)): 84.3%; fraction unbound at 4 h, 2 μM ([1]; Hu (human plasma), read-out: Plasma % Bound): 0.406; recovery at 4 h, 2 μM ([2]; Mu (CD-1 mouse plasma), recovery in plasma protein binding assay, read-out: (% Recovery)): 84.5%; fraction unbound at 4 h, 2 μM ([2]; Mu (CD-1 mouse plasma), read-out: Plasma % Bound): 0.376 |
| C[C@H](O)[C@H]1NC(=O)[C@@H](Cc2c[nH]cn2)NC(=O)[C@@H](CO)NC(=O)[C@@H](Cc2c[nH]cn2)NC(=O)[C@@H](NC(=O)[C@H](Cc2cn(CCOCCOCCOCCNC(=O)CC[C@H](NC(=O)c3ccc(NCc4cnc5nc(N)[nH]c(=O)c5n4)cc3)C(=O)O)nn2)NC(=O)CCOCCOCCOCCOCCOCCOCCOCCOCCOCCOCCNC(=O)CCOCCOCCOCCOCCOCCOCCOCCOCCOCCOCCNC(=O)CCCC[C@@H]2SC[C@@H]3NC(=O)N[C@@H]32)Cc2cn(nn2)CCCC[C@@H](C(N)=O)NC(=O)[C@@H](C)NC1=O [Tz heterobiligand] | high selectivity for FOLR1 (+) cells | – | – | – | – | – | – |
| C[C@@H]1NC(=O)[C@H]([C@@H](C)O)NC(=O)[C@H](Cc2cnc[nH]2)NC(=O)[C@H](CO)NC(=O)[C@H](Cc2cnc[nH]2)NC(=O)C(NC(=O)CC[C@H](NC(=O)c2ccc(NCc3cnc4nc(N)[nH]c(=O)c4n3)cc2)C(=O)O)Cc2cn(nn2)CCCC[C@H](C(=O)NCCOCCOCCOCC(=O)N[C@H](CCCCNC(=O)CN2CCN(CC(=O)O)CCN(CC(=O)O)CCN(CC(=O)O)CC2)C(N)=O)NC1=O (some centres unmarked) [compound 1189, Fol-hshta-PEG3-Lys(DOTA)] ({Pteroyl-γGlu}-[ξPra]HSHTA[dLys(N3)][AEEEA][dK](DOTA)-NH2; triazole 1-7) | – | 102 | 0.54 | resistant to NEP | 97.4 | 0.705 | – |
| Cc1ccc(CCCC(=O)NCCCC[C@@H](NC(=O)[C@H]2CCCCn3cc(nn3)CC(NC(=O)CC[C@H](NC(=O)c3ccc(NCc4cnc5nc(N)[nH]c(=O)c5n4)cc3)C(=O)O)C(=O)N[C@@H](Cc3cnc[nH]3)C(=O)N[C@@H](CO)C(=O)N[C@@H](Cc3cnc[nH]3)C(=O)N[C@@H]([C@@H](C)O)C(=O)N[C@@H](C)C(=O)N2)C(=O)NCC(=O)N[C@H](Cc2ccccc2)C(=O)N[C@H](CCCCNC(=O)COCCOCCOCCNC(=O)CN2CCN(CC(=O)O)CCN(CC(=O)O)CCN(CC(=O)O)CC2)C(=O)O)cc1 (stereo partly drawn) [compound 3302, Fol-hshta-Lys(4-MPBA)-Gly-Phe-Lys(PEG3-DOTA)] ({Pteroyl-γGlu}-[ξPra]HSHTA[dLys(N3)][dK](Butanoyl(4-(4-MePh)))G[dF][dK]([AEEEA-DOTA])-OH; triazole 1-7) | – | 88.1 | 0.051 | Cleavage of -G-F-K- | 103 | 0.035 | – |
| Cc1ccc(CCCC(=O)NCCCC[C@H](NC(=O)[C@@H]2CCCCn3cc(nn3)C[C@H](NC(=O)CC[C@H](NC(=O)c3ccc(NCc4cnc5nc(N)[nH]c(=O)c5n4)cc3)C(=O)O)C(=O)N[C@H](Cc3cnc[nH]3)C(=O)N[C@H](CO)C(=O)N[C@H](Cc3cnc[nH]3)C(=O)N[C@H]([C@H](C)O)C(=O)N[C@H](C)C(=O)N2)C(=O)NCC(=O)N[C@@H](Cc2ccccc2)C(=O)N[C@@H](CCCCNC(=O)CON)C(=O)O)cc1 [compound 3304, Fol-hshta-Lys(4-MPBA)-Gly-Phe-Lys(AO)] ({Pteroyl-γGlu}-[Pra][dH][dS][dH][dT][dA][Lys(N3)]K(Butanoyl(4-(4-MePh)))GFK(X2)-OH; triazole 1-7) | – | – | – | Cleavage of -G-F-K- | – | – | – |
| C[C@@H]1NC(=O)[C@H]([C@@H](C)O)NC(=O)[C@H](Cc2cnc[nH]2)NC(=O)[C@H](CO)NC(=O)[C@H](Cc2cnc[nH]2)NC(=O)C(NC(=O)CC[C@H](NC(=O)c2ccc(NCc3cnc4nc(N)[nH]c(=O)c4n3)cc2)C(=O)O)Cc2cn(nn2)CCCC[C@H](C(=O)NCCOCCOCCOCC(=O)NCC(=O)N[C@H](Cc2ccccc2)C(=O)N[C@H](CCCCNC(=O)CN2CCN(CC(=O)O)CCN(CC(=O)O)CCN(CC(=O)O)CC2)C(=O)O)NC1=O (stereo partly drawn) [compound 6307, Fol-hshta-PEG3-Gly-Phe-Lys(DOTA)] ({Pteroyl-γGlu}-[ξPra]HSHTA[dLys(N3)][AEEEA]G[dF][dK](DOTA)-OH; triazole 1-7) | – | 81.6 | 0.587 | Cleavage of -G-F-K- | 68.9 | 0.594 | – |
| CSCC[C@H](NC(=O)[C@H](CCCCNC(=O)CCCc1ccc(I)cc1)NC(=O)[C@@H]1CCCCn2cc(nn2)C[C@H](NC(=O)CC[C@H](NC(=O)c2ccc(NCc3cnc4nc(N)[nH]c(=O)c4n3)cc2)C(=O)O)C(=O)N[C@H](Cc2c[nH]cn2)C(=O)N[C@H](CO)C(=O)N[C@H](Cc2c[nH]cn2)C(=O)N[C@H]([C@H](C)O)C(=O)N[C@H](C)C(=O)N1)C(=O)N[C@H](C(=O)N[C@@H](CCCCNC(=O)CN1CCN(CC(=O)O)CCN(CC(=O)O)CCN(CC(=O)O)CC1)C(=O)O)C(C)C [compound #1306, Fol-hshta-Lys(4-IPBA)-Met-Val-Lys(DOTA)] ({Pteroyl-γGlu}-[Pra][dH][dS][dH][dT][dA][Lys(N3)]K(Butanoyl(4-(4-I-phenyl)))MVK(DOTA)-OH; triazole 1-7) | – | – | – | Cleavage of -M-V-K- | – | – | recovery [1]: 84.8%; recovery [2]: 82.7% |
| C[C@H](O)[C@H]1NC(=O)[C@@H](CCC(=O)O)NC(=O)[C@@H](CCC(=O)O)NC(=O)[C@@H](Cc2ccc(O)cc2)NC(=O)[C@@H](CCCCN)NC(=O)[C@@H](NC(=O)COCCOCCOCCNC(=O)CCCC[C@@H]2SC[C@@H]3NC(=O)N[C@@H]32)Cc2cn(nn2)CCCC[C@@H](C(N)=O)NC1=O [kyeet] ({Biotin-AEEEA}-[Pra][dK][dY][dE][dE][dT][Lys(N3)]-NH2; triazole 1-7) | slight binding selectivity for FOLR1 (+) cells | – | – | – | – | – | – |
